Test results: patent publication US20250043302A1, “MUTATED HYDROXYPHENYLPYRUVATE DIOXYGENASE POLYPEPTIDE, AND CODING GENE AND USE THEREOF” (BEIJING DABEINONG BIOTECHNOLOGY CO., LTD., priority 2021, published 2025)

Columns and labels:
Type in all cases: in vivo
[1] = tested on: Arabidopsis thaliana T1 plants; assay: Isoxaflutole tolerance of transgenic Arabidopsis thaliana T1 plants (spray, bleached leaf area grade, damage score); parameters: Scores (pesticide damage): scale not given here; conditions: for Classification and statistics of the grade of pesticide damage: Grade 0 (number of plants) / Classification and statistics of the grade of pesticide damage: Grade 1 (number of plants) / Classification and statistics of the grade of pesticide damage: Grade 2 (number of plants) / Classification and statistics of the grade of pesticide damage: Grade 3 (number of plants): 16 plants; for Classification and statistics of the grade of pesticide damage Grade 0 / Classification and statistics of the grade of pesticide damage Grade 1 / Classification and statistics of the grade of pesticide damage Grade 2 / Classification and statistics of the grade of pesticide damage Grade 3: number of plants in grade
How it was run: (§1)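 Damage was assessed by bleaching grade (0 none; 1 <50%; 2 >50%; 3 100% of leaf area) one week after spraying. Sprays on 18-day-old T1 and wild-type plants used field-rate multiples: topramezone 25–200, isoxaflutole 35–280, mesotrione 52.5–420 g ai/ha.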

[2] = tested on: Arabidopsis thaliana T1 plants; assay: Mesotrione tolerance of transgenic Arabidopsis thaliana T1 plants (spray, bleached leaf area grade, damage score); parameters: Scores: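 damage score 0-100 computed as Σ(N×S)/(T×M)×100 over grades 0-3 with higher meaning more damage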; conditions: for Grade 0 (classification and statistics of the grade of pesticide damage; number of plants) / Grade 1 (classification and statistics of the grade of pesticide damage; number of plants) / Grade 2 (classification and statistics of the grade of pesticide damage; number of plants) / Grade 3 (classification and statistics of the grade of pesticide damage; number of plants): 16 plants; for Classification and statistics of the grade of pesticide damage Grade 0 / Classification and statistics of the grade of pesticide damage Grade 1 / Classification and statistics of the grade of pesticide damage Grade 2 / Classification and statistics of the grade of pesticide damage Grade 3: number of plants in grade
How it was run: as §1

[3] = tested on: Arabidopsis thaliana T1 plants; assay: Topramezone tolerance of transgenic Arabidopsis thaliana T1 plants (spray, bleached leaf area grade, damage score); conditions: for Classification and statistics of the grade of pesticide damage Grade 0: number of plants at grade 0; for Classification and statistics of the grade of pesticide damage Grade 1: number of plants at grade 1; for Classification and statistics of the grade of pesticide damage Grade 2: number of plants at grade 2; for Classification and statistics of the grade of pesticide damage Grade 3: number of plants at grade 3; for Classification and statistics of the grade of pesticide damage: Grade 0 / Classification and statistics of the grade of pesticide damage: Grade 1 / Classification and statistics of the grade of pesticide damage: Grade 2 / Classification and statistics of the grade of pesticide damage: Grade 3: number of plants
How it was run: as §1

[4] = isoxaflutole 35 g ai/ha (0.5x field concentration), spray, Arabidopsis thaliana T1 plants
[5] = isoxaflutole 70 g ai/ha (1x field concentration), spray, Arabidopsis thaliana T1 plants
[6] = mesotrione 52.5 g ai/ha, Arabidopsis thaliana T1 plants
[7] = mesotrione 105 g ai/ha, Arabidopsis thaliana T1 plants
[8] = Table 13, topramezone 25 g ai/ha (1×)
[9] = Table 13, topramezone 100 g ai/ha (4×)
[10] = topramezone 25 g ai/ha (1×), 7 DAT, Table 4
[11] = topramezone 100 g ai/ha (4×), 7 DAT, Table 4

B1: AtHPPD-02: nucleotide sequence encoding wild-type Arabidopsis thaliana HPPD; vector DBN11730 (nucleic acid)
DNA: ATGGGACATCAGAATGCTGCTGTATCAGAAAATCAAAATCATGATGATGGAGCCGCCTCCTCACCAGGGTTTAAGTTGGTTGGGTTCTCCAAGTTTGTACGGAAGAACCCAAAATCCGACAAGTTCAAGGTTAAACGCTTCCACCACATTGAATTCTGGTGCGGCGACGCCACCAATGTTGCTCGGCGTTTTTCATGGGGTTTAGGCATGAGATTCTCAGCAAAGAGTGACCTGAGCACCGGCAACATGGTTCATGCTAGCTATCTCTTAACATCTGGAGATTTGAGGTTTCTTTTCACGGCGCCGTACTCACCATCACTCTCCGCCGGCGAGATCAAACCCACCACGACTGCAAGCATACCTTCATTTGATCATGGTAGTTGCAGATCCTTCTTCTCGTCGCACGGCCTAGGGGTGCGCGCGGTCGCCATCGAAGTTGAAGATGCAGAATCAGCGTTTAGTATCAGCGTGGCAAATGGAGCTATTCCTTCCTCCCCTCCAATTGTCCTCAATGAGGCTGTAACTATTGCCGAGGTGAAGTTGTATGGAGATGTTGTGCTGAGATATGTTTCTTACAAGGCAGAGGACACTGAGAAATCTGAATTTTTGCCTGGTTTTGAAAGGGTCGAGGATGCTTCAAGTTTTCCTCTTGATTACGGCATACGACGGTTGGATCACGCGGTTGGAAATGTACCAGAACTTGGGCCGGCGCTCACTTATGTGGCTGGTTTCACTGGATTCCATCAATTTGCTGAGTTCACAGCTGATGATGTTGGGACTGCTGAAAGTGGGTTGAACTCTGCAGTCCTCGCCTCTAATGATGAAATGGTGCTCCTCCCGATCAACGAGCCTGTGCATGGCACCAAAAGGAAATCACAAATACAGACATATCTTGAGCACAATGAAGGTGCAGGGCTTCAACATCTTGCACTGATGTCTGAAGACATTTTCCGTACGCTGAGAGAGATGAGGAAGAGAAGTAGTATTGGTGGATTTGACTTCATGCCTTCTCCCCCACCAACTTACTACCAGAACTTGAAGAAGAGGGTTGGTGATGTGCTATCTGATGACCAGATCAAGGAGTGTGAAGAATTGGGCATTCTTGTTGATCGGGACGACCAAGGAACATTACTGCAGATATTTACAAAACCACTTGGTGACCGCCCCACTATTTTTATTGAGATCATACAAAGAGTCGGCTGCATGATGAAGGATGAGGAAGGAAAAGCATATCAATCTGGTGGTTGTGGCGGCTTTGGGAAAGGAAACTTCTCTGAGCTGTTCAAATCCATCGAGGAGTATGAGAAGACCTTGGAGGCCAAGCAGCTCGTGGGTTGA
modifications: AtHPPD-02 Nucleotide Sequence
notes: vector DBN11730
Resistance evaluation ([1]; isoxaflutole 35 g ai/ha): Non-resistant | Scores ([1]; isoxaflutole 35 g ai/ha): 100 | Resistance evaluation [1, 4]: Non-resistant | Scores (pesticide damage) [1, 4]: 100 | Classification and statistics of the grade of pesticide damage: Grade 0 (number of plants) [1, 4]: 0 | Classification and statistics of the grade of pesticide damage: Grade 1 (number of plants) [1, 4]: 0 | Classification and statistics of the grade of pesticide damage: Grade 2 (number of plants) [1, 4]: 0 | Classification and statistics of the grade of pesticide damage: Grade 3 (number of plants) [1, 4]: 16 | Classification and statistics of the grade of pesticide damage Grade 0 ([1]; isoxaflutole 35 g ai/ha): 0 | Classification and statistics of the grade of pesticide damage Grade 1 ([1]; isoxaflutole 35 g ai/ha): 0 | Classification and statistics of the grade of pesticide damage Grade 2 ([1]; isoxaflutole 35 g ai/ha): 0 | Classification and statistics of the grade of pesticide damage Grade 3 ([1]; isoxaflutole 35 g ai/ha): 16 | Resistance evaluation ([1]; isoxaflutole 70 g ai/ha): Non-resistant | Scores ([1]; isoxaflutole 70 g ai/ha): 100 | Resistance evaluation [1, 5]: Non-resistant | Scores (pesticide damage) [1, 5]: 100 | Classification and statistics of the grade of pesticide damage: Grade 0 (number of plants) [1, 5]: 0 | Classification and statistics of the grade of pesticide damage: Grade 1 (number of plants) [1, 5]: 0 | Classification and statistics of the grade of pesticide damage: Grade 2 (number of plants) [1, 5]: 0 | Classification and statistics of the grade of pesticide damage: Grade 3 (number of plants) [1, 5]: 16 | Classification and statistics of the grade of pesticide damage Grade 0 ([1]; isoxaflutole 70 g ai/ha): 0 | Classification and statistics of the grade of pesticide damage Grade 1 ([1]; isoxaflutole 70 g ai/ha): 0 | Classification and statistics of the grade of pesticide damage Grade 2 ([1]; isoxaflutole 70 g ai/ha): 0 | Classification and statistics of the grade of pesticide damage Grade 3 ([1]; isoxaflutole 70 g ai/ha): 16 | Resistance evaluation ([2]; mesotrione 52.5 g ai/ha): Non-resistant | Scores ([2]; mesotrione 52.5 g ai/ha): 100 | Resistance evaluation [2, 6]: Non-resistant | Scores [2, 6]: 100 | Grade 0 (classification and statistics of the grade of pesticide damage; number of plants) [2, 6]: 0 | Grade 1 (classification and statistics of the grade of pesticide damage; number of plants) [2, 6]: 0 | Grade 2 (classification and statistics of the grade of pesticide damage; number of plants) [2, 6]: 0 | Grade 3 (classification and statistics of the grade of pesticide damage; number of plants) [2, 6]: 16 | Classification and statistics of the grade of pesticide damage Grade 0 ([2]; mesotrione 52.5 g ai/ha): 0 | Classification and statistics of the grade of pesticide damage Grade 1 ([2]; mesotrione 52.5 g ai/ha): 0 | Classification and statistics of the grade of pesticide damage Grade 2 ([2]; mesotrione 52.5 g ai/ha): 0 | Classification and statistics of the grade of pesticide damage Grade 3 ([2]; mesotrione 52.5 g ai/ha): 16 | Resistance evaluation ([2]; mesotrione 105 g ai/ha): Non-resistant | Scores ([2]; mesotrione 105 g ai/ha): 100 | Resistance evaluation [2, 7]: Non-resistant | Scores [2, 7]: 100 | Grade 0 (classification and statistics of the grade of pesticide damage; number of plants) [2, 7]: 0 | Grade 1 (classification and statistics of the grade of pesticide damage; number of plants) [2, 7]: 0 | Grade 2 (classification and statistics of the grade of pesticide damage; number of plants) [2, 7]: 0 | Grade 3 (classification and statistics of the grade of pesticide damage; number of plants) [2, 7]: 16 | Classification and statistics of the grade of pesticide damage Grade 0 ([2]; mesotrione 105 g ai/ha): 0 | Classification and statistics of the grade of pesticide damage Grade 1 ([2]; mesotrione 105 g ai/ha): 0 | Classification and statistics of the grade of pesticide damage Grade 2 ([2]; mesotrione 105 g ai/ha): 0 | Classification and statistics of the grade of pesticide damage Grade 3 ([2]; mesotrione 105 g ai/ha): 16 | Resistance evaluation [3, 8]: Non-resistant | Classification and statistics of the grade of pesticide damage Grade 0 [3, 8]: 0 | Classification and statistics of the grade of pesticide damage Grade 1 [3, 8]: 0 | Classification and statistics of the grade of pesticide damage Grade 2 [3, 8]: 0 | Classification and statistics of the grade of pesticide damage Grade 3 [3, 8]: 16 | Scores ([3]; Table 13, topramezone 25 g ai/ha (1×), pesticide damage score): 100 | Resistance evaluation [3, 9]: Non-resistant | Classification and statistics of the grade of pesticide damage Grade 0 [3, 9]: 0 | Classification and statistics of the grade of pesticide damage Grade 1 [3, 9]: 0 | Classification and statistics of the grade of pesticide damage Grade 2 [3, 9]: 0 | Classification and statistics of the grade of pesticide damage Grade 3 [3, 9]: 16 | Scores ([3]; Table 13, topramezone 100 g ai/ha (4×), pesticide damage score): 100 | Classification and statistics of the grade of pesticide damage: Grade 0 [3, 10]: 0 | Classification and statistics of the grade of pesticide damage: Grade 1 [3, 10]: 0 | Classification and statistics of the grade of pesticide damage: Grade 2 [3, 10]: 0 | Classification and statistics of the grade of pesticide damage: Grade 3 [3, 10]: 16 | Classification and statistics of the grade of pesticide damage: Grade 0 [3, 11]: 0 | Classification and statistics of the grade of pesticide damage: Grade 1 [3, 11]: 0 | Classification and statistics of the grade of pesticide damage: Grade 2 [3, 11]: 0 | Classification and statistics of the grade of pesticide damage: Grade 3 [3, 11]: 16 | Scores ([3]; pesticide damage score 0-100, topramezone 25 g ai/ha (1×), 7 DAT, Table 4): 100 | Scores ([3]; pesticide damage score 0-100, topramezone 100 g ai/ha (4×), 7 DAT, Table 4): 100 | Resistance evaluation [3, 10]: non-resistant (non-resistant plants (scores 68-100)) | Resistance evaluation [3, 11]: non-resistant (non-resistant plants (scores 68-100))
